# Measurements reported in patent publication US5869271A, “G-beta-gamma regulated phosphatidylinositol-3' kinase” (Onyx Pharmaceuticals, priority 1997, dated 1999).
# Biological target: free p120 PI3K catalytic subunit (Sus scrofa, UniProt O02697)
# Assay: PI3K assay on free recombinant p120 (Sf9-derived)
# Format: biochemical, porcine
# Method: Assays contained either 7 nM p101/p120 or 36 nM p120 alone (final concentrations) which were incubated with various reagents; 10 mM NaF and 30 μM AlCl3 (A/F) ; 1 μM Gβγ-subunits (βγ); 2 μM Gα-GDP; 100 nM wortmannin (W) or 50 μM tyrosine phosphorylated peptide (PY) for a total of 15 minutes (at 0° C.) prior to starting the assays by adding [γ^32 P]-ATP; [^32 P]-incorporated into [^32 P]-PtdIns(3,4,5) P3 was quantified. The data shown are means (n=2).
# Purified aliquots of Sf9 -derived or pig neutrophil cytosol-derived PI3K were diluted in ice-cold 0.12M NaCl, 25 mM HEPES, 1 mM EGTA, 1 mM DTT, 1 mg-ml^-1 BSA, 1% betaine, 0.02%, w/v, Tween-20, pH 7.4, 0° C. to an appropriate extent, then 5 μl aliquots were stored on ice until assayed. […] 30 μl of a mixture of phospholipids with or without Gβγs and/or Gαs (either GDP-bound or activated) was added to the 5 μl fractions, or 10 μl of beads, and mixed. After 10 minutes on ice, 5-10 μl of last wash buffer, supplemented with MgCl2 to give a final concentration in the extant assay volume of 3.5 mM, was added and mixed. Six minutes later, 5 μl of last wash buffer was added (to give a final assay volume of 50 μl) containing [^32 ]-ATP (typically 10 μCi assay^-1, Amersham, PB10168) and 3.5 mM MgCl2, tubes were mixed and transferred to a 30° C. water bath. […]
# Chain of free p120 PI3K catalytic subunit (O02697 whole entry): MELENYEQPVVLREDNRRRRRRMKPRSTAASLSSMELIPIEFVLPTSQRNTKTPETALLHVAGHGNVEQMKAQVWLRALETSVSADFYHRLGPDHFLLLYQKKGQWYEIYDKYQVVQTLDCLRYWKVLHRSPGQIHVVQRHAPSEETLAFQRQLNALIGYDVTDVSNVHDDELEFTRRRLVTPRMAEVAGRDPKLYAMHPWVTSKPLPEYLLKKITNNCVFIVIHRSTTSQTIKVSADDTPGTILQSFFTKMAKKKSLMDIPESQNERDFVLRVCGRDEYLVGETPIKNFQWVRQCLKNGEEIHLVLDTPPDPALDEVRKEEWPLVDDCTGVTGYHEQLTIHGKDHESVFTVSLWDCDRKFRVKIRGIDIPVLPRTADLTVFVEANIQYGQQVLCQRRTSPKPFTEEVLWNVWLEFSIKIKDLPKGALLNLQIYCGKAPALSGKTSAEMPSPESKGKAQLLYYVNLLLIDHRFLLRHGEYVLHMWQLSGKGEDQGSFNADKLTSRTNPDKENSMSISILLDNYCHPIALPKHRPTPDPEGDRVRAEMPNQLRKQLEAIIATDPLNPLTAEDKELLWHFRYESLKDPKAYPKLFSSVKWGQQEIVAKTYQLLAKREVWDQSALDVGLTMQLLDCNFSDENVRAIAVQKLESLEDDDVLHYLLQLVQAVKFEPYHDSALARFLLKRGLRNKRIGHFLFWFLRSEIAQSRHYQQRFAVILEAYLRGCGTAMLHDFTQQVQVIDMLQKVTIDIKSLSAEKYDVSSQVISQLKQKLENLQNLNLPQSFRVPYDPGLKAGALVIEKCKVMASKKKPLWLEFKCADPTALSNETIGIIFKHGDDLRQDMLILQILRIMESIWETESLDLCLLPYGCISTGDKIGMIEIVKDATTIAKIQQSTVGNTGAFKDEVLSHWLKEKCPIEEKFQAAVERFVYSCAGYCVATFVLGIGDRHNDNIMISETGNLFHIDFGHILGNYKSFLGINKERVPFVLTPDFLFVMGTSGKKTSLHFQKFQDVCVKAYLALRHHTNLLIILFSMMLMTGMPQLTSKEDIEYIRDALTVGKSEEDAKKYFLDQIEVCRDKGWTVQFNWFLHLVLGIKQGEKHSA
molecule,measurement,value
p120: catalytic subunit of the G protein-regulated PI3K; the b332 result is for the form after complete thrombin cleavage (protein) MELENYEQPVVLREDNRRRRRRMKPRSTAASLSSMELIPIEFVLATSQRNTKTPETALLHVAGHGNVEKMKAQVLLRALETSVSWDFYHRFGPDHFLLVFQKKGEWYEIYDKYQVVQTLDCLRYWEVLHRSPGQIHVVQRHAPSEETLAFQRQLNALIGYDVTDVSNVHDDELEFTRRRLVTPRMAEVAGRDPKLYAMHPWVTSKPLPEYLLKKITNNCVFIVIHRSTTSQTIKVSADDTPGTILQSFFTKMAKKKSLMDIPESQNERDFVLRVCGRDEYLVGETPIKNFQWVRQCLKNGEEIHLVLDTPPDPALDEVRKEEWPLVDDCTGVTGYHEQLTIHGKDHESVFTVSLWDCDRKFRVKIRGIDIPVLPRTADLTVFVEANIQYGQQVLCQRRTSPKPFTEEVLWNVWLEFSIKIKDLPKGALLNLQIYCGKAPALSGKTSAEMPSPESKGKAQLLYYVNLLLIDHRFLLRHGEYVLHMWQLSGKGEDQGSFNADKLTSGTNPDKEDSMSISILLDNYCHPIALPKHRPTPDPEGDRVRAEMPNQLRKQLEAIIATDPLNPLTAEDKELLWHFRYESLKDPKAYPKLFSSVKWGQQEIVAKTYQLLAKREVWDQSALDVGLTMQLLDCNFSDENVRAIAVQKLESLEDDDVLHYLLQLVQAVKFEPYHDSALARFLLKRGLRNKRIGHFLFWFLRSEIAQSRHYQQRFAVILEAYLRGCGTAMLHDFTQQVQVIDMLQKVTIDIKSLSAEKYDVSSQVISQLKQKLENLQNLNLPQSFRVPYDPGLKAGALVIEKCKVMASKKKPLWLEFKCADPTALSNETIGIIFKHGDDLRQDMLILQILRIMESIWETESLDLCLLPYGCISTGDKIGMIEIVKDATTIAKIQQSTVGNTGAFKDEVLSHWLKEKCPIEEKFQAAVERFVYSCAGYCVATFVLGIGDRHNDNIMISETGNLFHIDFGHILGNYKSFLGINKERVPFVLTPDFLFVMGTSGKKTSLHFQKFQDVCVKAYLALRHHTNLLIILFSMMLMTGMPQLTSKEDIEYIRDALTVGKSEEDAKKYFLDQIEVCRDKGWTVQFNWFLHLVLGIKQGEKHPA,reduction of p120 PI3K catalytic activity by removal of about 40 amino terminal residues (thrombin cleavage),20-30%
